B1: L96S (designed binder)
chain: MTLQELLREEALRRAEAEAFRYALELLAEKFPEQKEYLLDLAEEIESQIRSLSGVDVEDVRKFLDKEWAWVKELLAEHPAELAEVEAARAARLAESRAEVEAKVAA
B2: A28E (designed binder)
chain: B1 chain with A28E, S96L
B3: E25Y (designed binder)
chain: B1 chain with E25Y, S96L
B4: E18C (designed binder)
chain: B1 chain with E18C, S96L
B5: L24A (designed binder)
chain: B1 chain with L24A, S96L
B6: G54R (designed binder)
chain: B1 chain with G54R, S96L
B7: K72W (designed binder)
chain: B1 chain with K72W, S96L
B8: L64F (designed binder)
chain: B1 chain with L64F, S96L
B9: L12D (designed binder)
chain: B1 chain with L12D, S96L
B10: E9R (designed binder)
chain: B1 chain with E9R, S96L
B11: E58R (designed binder)
chain: B1 chain with E58R, S96L
B12: L39C (designed binder)
chain: B1 chain with L39C, S96L
B13: L38C (designed binder)
chain: B1 chain with L38C, S96L
B14: L64W (designed binder)
chain: B1 chain with L64W, S96L
B15: A23R (designed binder)
chain: B1 chain with A23R, S96L
B16: A98L (designed binder)
chain: B1 chain with S96L, A98L
B17: E84P (designed binder)
chain: B1 chain with E84P, S96L
B18: V85Y (designed binder)
chain: B1 chain with V85Y, S96L
B19: E5W (designed binder)
chain: B1 chain with E5W, S96L
B20: L64T (designed binder)
chain: B1 chain with L64T, S96L
B21: V71T (designed binder)
chain: B1 chain with V71T, S96L
B22: K62P (designed binder)
chain: B1 chain with K62P, S96L
B23: R92D (designed binder)
chain: B1 chain with R92D, S96L
B24: Q34L (designed binder)
chain: B1 chain with Q34L, S96L
B25: L38Q (designed binder)
chain: B1 chain with L38Q, S96L
B26: R92Y (designed binder)
chain: B1 chain with R92Y, S96L
B27: E46S (designed binder)
chain: B1 chain with E46S, S96L
B28: A105N (designed binder)
chain: B1 chain with S96L, A105N
B29: R13K (designed binder)
chain: B1 chain with R13K, S96L
B30: W68S (designed binder)
chain: B1 chain with W68S, S96L
B31: L74M (designed binder)
chain: B1 chain with L74M, S96L
B32: E44V (designed binder)
chain: B1 chain with E44V, S96L
B33: L52Q (designed binder)
chain: B1 chain with L52Q, S96L
B34: P32N (designed binder)
chain: B1 chain with P32N, S96L
B35: R21C (designed binder)
chain: B1 chain with R21C, S96L
B36: F20Y (designed binder)
chain: B1 chain with F20Y, S96L
B37: L12G (designed binder)
chain: B1 chain with L12G, S96L
B38: L7A (designed binder)
chain: B1 chain with L7A, S96L
B39: V85Q (designed binder)
chain: B1 chain with V85Q, S96L
B40: E99W (designed binder)
chain: B1 chain with S96L, E99W

Changes are numbered by the printed parent chain. Names may count otherwise.

The target of this assay is T1, TNFR1 (Homo sapiens, UniProt P19438).
T1 chain: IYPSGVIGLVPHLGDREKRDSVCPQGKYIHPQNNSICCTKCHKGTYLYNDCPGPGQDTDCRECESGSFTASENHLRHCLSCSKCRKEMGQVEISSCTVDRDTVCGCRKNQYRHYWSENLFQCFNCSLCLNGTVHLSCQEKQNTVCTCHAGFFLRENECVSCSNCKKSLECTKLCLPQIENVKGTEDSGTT
The assay can be described thus: yeast display SC50.
In the case of B1, the “apparent Kd (screen)” value amounted to 0.539 nM.
As for B2, the figure is 5.84 nM.
The result for B3 reads 0.653 nM; that for B4, 0.79 nM.
As for B5, the figure is 1.54 nM; as for B6, 3.3 nM; as for B7, 0.79 nM.
Regarding B8, the “apparent Kd (screen)” value was 0.869 nM.
The result for B9 reads 1.05 nM; that for B10, 1.4 nM; that for B11, 0.869 nM.
Regarding B12, the “apparent Kd (screen)” value was 1.16 nM.
As for B13, the figure is 4.39 nM; as for B14, 26.9 nM; as for B15, 0.539 nM.
Consider B16, for which the “apparent Kd (screen)” value was 0.539 nM.
As for B17, the figure is 0.49 nM; as for B18, 0.869 nM; as for B19, 0.539 nM.
As for B20, the figure is 12.5 nM.
For the molecule B21, the “apparent Kd (screen)” value amounted to 1.27 nM.
Consider B22, for which the “apparent Kd (screen)” value turned out to be 3 nM.
The result for B23 reads 0.718 nM; that for B24, 0.539 nM; that for B25, 16.7 nM.
As for B26, the figure is 0.49 nM.
The result for B27 reads 0.49 nM.
With B28, the “apparent Kd (screen)” value is 0.593 nM.
Take B29: the “apparent Kd (screen)” value came to 0.869 nM.
As for B30, the figure is 2.48 nM; as for B31, 0.956 nM; as for B32, 6.43 nM.
As to B33, the “apparent Kd (screen)” value was determined as 0.539 nM.
As to B34, the “apparent Kd (screen)” value was determined as 0.653 nM.
The result for B35 reads 0.718 nM; that for B36, 2.05 nM; that for B37, 2.25 nM.
As to B38, the “apparent Kd (screen)” value was 11.4 nM.
The result for B39 reads 0.869 nM; that for B40, 0.593 nM.

Values taken from article PMC12416549 (2024).
